Where “and” joins values, the source holds several entries; their conditions need not be identical. Equal values may be shown once.

T1: human isoleucine zipper-CD40L (IZ-hCD40L) (human, UniProt P29965 113-261)
T1 sequence: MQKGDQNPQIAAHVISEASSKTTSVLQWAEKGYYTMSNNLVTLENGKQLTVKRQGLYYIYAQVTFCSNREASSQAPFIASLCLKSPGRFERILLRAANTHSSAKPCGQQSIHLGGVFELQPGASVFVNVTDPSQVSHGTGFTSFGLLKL

B1: BMS2h-722 (other)
VH: EVQLLESGGGLVQPGGSLRLSCAASGFTFTKYPMAWVRQAPGKGLEWVSGIDANGNRTYYADSVKGRFTISRDNSKNTLYLQMNSLRAEDTAVYYCAEGTWRRHFAIFDYWGQGTLVTVSS
B2: BMS2h-703 (other)
VH: EVQLLESGGGLVQPGGSLRLSCAASGFTFYNYDMSWVRQAPGKGLEWVSGIDSMGLVTYYADSVKGRFTISRDNSKNTLYLQMNSLRAEDTAVYYCAKGSNASDWVVFDYWGQGTLVTVSS
B3: BMS2h-719 (other)
VH: EVQLLESGGGLVQPGGSLRLSCAASGFTFKRYEMTWVRQAPGKGLEWVSSISSDGSFTYYADSVKGRFTISRDNSKNTLYLQMNSLRAEDTAVYYCAEPFTEFDYWGQGTLVTVSS
B4: BMS2h-719-203 (other)
VH: EVQLLESGGGLVQPGGSLRLSCAASGFTFNSYEMMWVRQAPGKGLEWVSSISSDGSFTYYADSVKGRFTISRDNSKNTLYLQMNSLRAEDTAVYYCAEPFTEFDYWGHGTLVTVSS
B5: BMS2h-719-215 (other)
VH: EVQLLESGGGLVQPGGSLRLSCAASGFTFKRYEMMWVRQAPGKGLEWVSSISSDGSFTYYADSVKGRFTISRDNSKNTLYLQMNSLRAEDTAVYYCAEPFTELDYWGHGTLVTVSS
B6: BMS2h-719-213 (other)
VH: EVQLLESGGGLVQPGGSLRLSCAASGFTFKRYEMMWVRQAPGKGLEWVSSISSDGSFTYYADSVKGRFTISRDNSKNTLYLQMNSLRAEDTAVYYCADPFTEMDYWGHGTLVTVSS
B7: BMS2h-719-214 (other)
VH: EVQLLESGGGLVQPGGSLRLSCAASGFTFKRYEMMWVRQAPGKGLEWVSSISSDGSFTYYADSVKGRFTISRDNSKNTLYLQMNSLRAEDTAVYYCADPFTEFDYWGHGTLVTVSS
B8: BMS2h-719-218 (other)
VH: EVQLLESGGGLVQPGGSLRLSCAASGFTFKRYEMMWVRQAPGKGLEWVSSISSDGSFTYYAESVKGRFTISRDNSKNTLYLQMNSLRAEDTAVYYCAEPFTEFDYWGHGTLVTVSS
B9: BMS2h-706 (other)
VH: EVQLLESGGGLVQPGGSLRLSCAASGFTFGSYKMLWVRQAPGKGLEWVSSITNSGTETYYADSVKGRFTISRDNSKNTLYLQMNSLRAEDTAVYYCAKSMYPDLEIVHFDYWGQGTLVTVSS
B10: BMS2h-723 (other)
VH: EVQLLESGGGLVQPGGSLRLSCAASGFTFDLYDMMWVRQAPGKGLEWVSSISDLGTLTYYADSVKGRFTISRDNSKNTLYLQMNSLRAEDTAVYYCAKNGFRVTSNDRRFDYWGQGTLVTVSS
B11: BMS2h-725 (other)
VH: EVQLLESGGGLVQPGGSLRLSCAASGFTFSAYTMGWVRQAPGKGLEWVSLIGDRGSWTYYADSVKGRFTISRDNSKNTLYLQMNSLRAEDTAVYYCAEPSDPTKFDYWGQGTLVTVSS
B12: BMS2h-725-2 (other)
VH: EVQLLESGGGLVQPGGSLRLSCAASGFTFSAYTMGWVRQAPGKGLEWVSLIGDRGSWTYYADSVKGRFTISRDNSKNTLYLQMNSLRAEDTAVYYCAEPSDPTKFVYWGQGTPVTVSS
B13: BMS2h-725-19 (other)
VH: EVQLLESGGGLVQPGGSLRLSCAASGFTFSAYTMGWVRQAPGKGLEWVSLIGDRGSWTYYADSVKGRFTISRDNSKNTLYLQMNSLRAEDTAVYYCADPSDPTKFVYWGQGTLVTVSS
B14: BMS2h-725-9 (other)
VH: EVQLLESGGGLVQPGGSLRLSCAASGFTFSAYTMGWVRQAPGMGLEWVSLIGDRGSWTYYADSVKGRFTISRDNSKNTLYLQMNSLRAEDTAVYYCAEPSDPTKFDYWGQGTLVTVSS
B15: BMS2h-572-12 (other)
VH: EVQLLESGGGLVQPGGSLRLSCAASGFTFNWQLMGWARQAPGKGLEWVSGIEGPGDVTYYADSVKGRFTISRDNSKNTLYLQMNSLRAEDTAVYYCAKVGKESNSDYRGQGTLVTVSS
B16: BMS2h-572-22 (other)
VH: EVQLFESGGGSVQPGGSLRLSCAASGFTFNWQLMGWVRQAPGKGLEWVSGIEGPGDVTYYADSVKGRFTISRDNSKNTLYLQMNSLRAEDTAVYYCAKVGKESNSDYRGQGTLVTVSS
B17: BMS2h-710 (other)
VH: EVQLLESGGGLVQPGGSLRLSCAASGFTFNTYSMSWVRQAPGKGLEWVSWIDADGWVTYYADSVKGRFTISRDNSKNTLYLQMNSLRAEDTAVYYCAQTGHTFDYWGQGTLVTVSS
B18: BMS2h-730 (other)
VL: DIQMTQSPSSLSASVGDRVTITCRASQDIKDWLHWYQQKPGKAPKLLIYFASGLQSGVPSRFSGSGSGTDFTLTISSLQPEDSATYYCQQHYSTPYTSGQGTKVEIKR
B19: BMS2h-702 (other)
VH: EVQLLESGGGLVQPGGSLRLSCAASGFTFAEYEMMWARQAPGKGLEWVSRIAGNGSRTYYADSVKGRFTISRDNSKNTLYLQMNSLRAEDTAVYYCAIMLSHFDYWGQGTLVTVSS
B20: BMS2h-712 (other)
VH: EVQLLESGGGLVQPGGSLRLSCAASGFTFPEYEMKWVRQAPGKGLEWVSTITPSGGHTYYADSVKGRFTISRDNSKNTLYLQMNSLRAEDAAVYYCAIPLSSFDYWGRGTLVTVSS
B21: BMS2h-726 (other)
VH: EVQLLESGGGLVQPGGSLRLSCAASGFTFDNYKMYWVRQAPGKGLEWVSSISEIGNLTYYADSVKGRFTISRDNSKNTLYLQMNSLRAEDTAVYYCAIALTRFDYWGQGTLVTVSS
B22: BMS2h-707 (other)
VH: EVQLLESGGGLVQPGGSLRLSCAASGFTFETYRMSWVRQAPGKGLEWVSAIDQEGSATYYADSVKGRFTISRDNSKNTLYLQMNSLRAEDTAVYYCAKNSGTRPGLRFDYWGQGTLVTVSS
B23: BMS2h-717 (other)
VH: EVQLLESGGGLVQPGGSLRLSCAASGFTFSSYEMAWVRQAPGKGLEWVSRIEPDGSNTYYADSVKGRFTISRDNSKNTLYLQMNSLRAEDTAVYYCAKGPDNFTMFDYWGQGTLVTVSS

For this experiment, the target named is T1, human isoleucine zipper-CD40L …. In words: cell-based or functional assay.
On to B1, for which the “hIZCD40L-driven Human B Cell Proliferation EC50” value was greater than 7000 nM.

Consider B2, for which the “hIZCD40L-driven Human B Cell Proliferation EC50” value is greater than 7000 nM.

As for B3, the “hIZCD40L-driven Human B Cell Proliferation EC50” value turned out to be 600 nM.

As for B4, the “hIZCD40L-driven Human B Cell Proliferation EC50” value was 81 nM and 96 nM.

For the molecule B5, the “hIZCD40L-driven Human B Cell Proliferation EC50” value was 92 nM and 91 nM.

In the case of B6, the “hIZCD40L-driven Human B Cell Proliferation EC50” value was 62 nM and 98 nM.

On to B7, for which the “hIZCD40L-driven Human B Cell Proliferation EC50” value was 66 nM and 89 nM.

B8: the “hIZCD40L-driven Human B Cell Proliferation EC50” value was 57 nM and 60 nM.

For B9, the “hIZCD40L-driven Human B Cell Proliferation EC50” value was greater than 7000 nM.

For B10, the “hIZCD40L-driven Human B Cell Proliferation EC50” value is greater than 7000 nM.

As to B11, the “hIZCD40L-driven Human B Cell Proliferation EC50” value came out at 6400 nM.

As to B12, the “hIZCD40L-driven Human B Cell Proliferation EC50” value is greater than 7000 nM.

As for B13, the “hIZCD40L-driven Human B Cell Proliferation EC50” value is greater than 7000 nM.

In the case of B14, the “hIZCD40L-driven Human B Cell Proliferation EC50” value was greater than 7000 nM.

B15: the “hIZCD40L-driven Human B Cell Proliferation EC50” value was 79 nM and 76 nM.

Consider B16, for which the “hIZCD40L-driven Human B Cell Proliferation EC50” value is 357 nM and 305 nM.

With B17, the “hIZCD40L-driven Human B Cell Proliferation EC50” value is greater than 7000 nM.

With B18, the “hIZCD40L-driven Human B Cell Proliferation EC50” value is greater than 7000 nM.

Consider B19, for which the “hIZCD40L-driven Human B Cell Proliferation EC50” value was greater than 7000 nM.

With B20, the “hIZCD40L-driven Human B Cell Proliferation EC50” value was greater than 7000 nM.

Consider B21, for which the “hIZCD40L-driven Human B Cell Proliferation EC50” value is greater than 7000 nM.

Take B22: the “hIZCD40L-driven Human B Cell Proliferation EC50” value was greater than 7000 nM.

On to B23, for which the “hIZCD40L-driven Human B Cell Proliferation EC50” value is greater than 7000 nM.

The values above are taken from patent publication US20160075790A1 (Bristol-Myers Squibb, published 2016).
